Data reported in article PMC12096953, “Insights into heme degradation and hydrogen peroxide-induced dimerization of human neuroglobin” (Bioscience Reports, 2025).

Tests used:
[1] = biological target: the molecule itself; experiment: SEC-MALS; HPLC-SEC-PDA-MALS, Superdex 200 10/300 GL, 1x PBS pH 7.4, 25°C, detection at 412 nm; 1 μg/μL protein incubated 20 h at 4°C with different molar excess of H2O2 before the run; monomer to covalent dimer
[2] = biological target: the molecule itself; experiment: SEC; HPLC-SEC of wild-type hNgb, 1 µg/µL, 15-fold H2O2, 20 h at 4°C, with or without the spin trap MNP (10 µg/µL)

| Protein | stoichiometry N [1] | percent dimerization (15-fold H2O2, with MNP) [2] [%] | percent dimerization (15-fold H2O2, without MNP) [2] [%] |
| --- | --- | --- | --- |
| wild-type human neuroglobin (natural protein, UniProt Q9NPG2 1-151, looked up, human neuroglobin (hNgb), described as a protein of 151 amino acids; Heme b protein; The dimers seen arise after H2O2 treatment and are held by covalent Tyr-Tyr links; also called hNgb; wild-type hNgb) MERPEPELIRQSWRAVSRSPLEHGTVLFARLFALEPDLLPLFQYNCRQFSSPEDCLSSPEFLDHIRKVMLVIDAAVTNVEDLSSLEEYLASLGRKHRAVGVKLSSFSTVGESLLYMLEKCLGPAFTPATRAAWSQLYGAVVQAMSRGWDGE | 2 | 8.1 | 18.7 |
| human neuroglobin Y44A variant (natural protein, UniProt Q9NPG2 1-151, looked up, human neuroglobin (hNgb) with Y44A; also called hNgb Y44A) MERPEPELIRQSWRAVSRSPLEHGTVLFARLFALEPDLLPLFQANCRQFSSPEDCLSSPEFLDHIRKVMLVIDAAVTNVEDLSSLEEYLASLGRKHRAVGVKLSSFSTVGESLLYMLEKCLGPAFTPATRAAWSQLYGAVVQAMSRGWDGE | 2 |  |  |
| human neuroglobin Y44F variant (natural protein, UniProt Q9NPG2 1-151, looked up, human neuroglobin (hNgb) with Y44F) MERPEPELIRQSWRAVSRSPLEHGTVLFARLFALEPDLLPLFQFNCRQFSSPEDCLSSPEFLDHIRKVMLVIDAAVTNVEDLSSLEEYLASLGRKHRAVGVKLSSFSTVGESLLYMLEKCLGPAFTPATRAAWSQLYGAVVQAMSRGWDGE | 2 |  |  |
| human neuroglobin Y44AC46AC55A variant (natural protein, UniProt Q9NPG2 1-151, looked up, human neuroglobin (hNgb) with Y44A, C46A and C55A; also called triple variant) MERPEPELIRQSWRAVSRSPLEHGTVLFARLFALEPDLLPLFQANARQFSSPEDALSSPEFLDHIRKVMLVIDAAVTNVEDLSSLEEYLASLGRKHRAVGVKLSSFSTVGESLLYMLEKCLGPAFTPATRAAWSQLYGAVVQAMSRGWDGE | 2 |  |  |
